Experimental data taken from publication PMC9911985 (Journal of Molecular Biology, 2023).
Where no end group is shown, it is not given here. MBP = not defined here

Molecular target: the molecule itself
Assay: SEC

**Q.** Does {6xHis-MBP}-SCILLYVVFQKLSARLRALR (domain or fragment, reading uncertain) [6xHis-MBP-selenos 40–59] bind?
**A.** Result: binds
